Measured values taken from US20200048358A1 (ALLIGATOR BIOSCIENCE, published 2020).

T1: construct 84: Construct containing the full length OX40 sequence (human, UniProt P43489 29-277)
T1 construct: On transiently transfected FreeStyle 293-F cells; also called human OX40 (full length, on 293-F cells)
T1 sequence: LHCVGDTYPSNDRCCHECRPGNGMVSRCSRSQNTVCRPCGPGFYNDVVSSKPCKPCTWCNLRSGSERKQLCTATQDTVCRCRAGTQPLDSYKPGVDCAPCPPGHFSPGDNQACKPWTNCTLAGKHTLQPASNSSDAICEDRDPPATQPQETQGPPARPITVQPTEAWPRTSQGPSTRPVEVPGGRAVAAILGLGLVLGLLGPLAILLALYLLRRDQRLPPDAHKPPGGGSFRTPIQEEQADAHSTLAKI

T2: chimeric OX40 construct 1546: Human OX40 with mouse domains 2A, 2B and module 3 (aa 66-126) (human; mouse, UniProt P47741 62-124)
T2 construct: domain: 2A, 2B and module 3; On 293-F cells; limits derived as for 1544
T2 sequence: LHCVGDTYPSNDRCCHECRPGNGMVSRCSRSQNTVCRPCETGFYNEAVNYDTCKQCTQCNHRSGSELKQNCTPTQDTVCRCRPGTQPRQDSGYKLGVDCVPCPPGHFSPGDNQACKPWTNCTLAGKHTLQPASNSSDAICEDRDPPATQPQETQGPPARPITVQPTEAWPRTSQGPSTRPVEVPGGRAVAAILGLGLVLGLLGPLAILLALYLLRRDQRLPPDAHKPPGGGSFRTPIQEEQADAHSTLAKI

T3: chimeric OX40 construct 1547: Human OX40 with mouse domain 2B, module 3 and domain 4A (aa 83-141) (human; mouse, UniProt P47741 79-139)
T3 construct: domain: 2B, module 3 and domain 4A; On 293-F cells; limits derived as for 1544
T3 sequence: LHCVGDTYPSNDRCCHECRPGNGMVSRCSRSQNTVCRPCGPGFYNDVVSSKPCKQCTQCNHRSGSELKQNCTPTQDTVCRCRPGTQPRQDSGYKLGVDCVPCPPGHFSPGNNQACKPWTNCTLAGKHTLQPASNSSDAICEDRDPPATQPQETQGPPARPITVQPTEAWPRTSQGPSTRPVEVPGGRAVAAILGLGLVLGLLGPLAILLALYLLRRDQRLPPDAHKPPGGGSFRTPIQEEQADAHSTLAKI

T4: chimeric OX40 construct 1545: Human OX40 with mouse domains 1B, 2A and 2B (aa 43-107) (human; mouse, UniProt P47741 39-103)
T4 construct: domain: 1B, 2A and 2B; On 293-F cells; limits derived as for 1544
T4 sequence: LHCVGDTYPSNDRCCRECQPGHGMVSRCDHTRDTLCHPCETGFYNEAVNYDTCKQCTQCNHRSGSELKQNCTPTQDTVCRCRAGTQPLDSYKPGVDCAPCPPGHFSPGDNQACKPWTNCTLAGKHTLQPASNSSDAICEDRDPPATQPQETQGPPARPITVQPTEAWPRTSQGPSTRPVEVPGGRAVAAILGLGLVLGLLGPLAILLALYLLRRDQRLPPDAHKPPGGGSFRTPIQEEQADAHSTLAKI

T5: chimeric OX40 construct 1544: Human OX40 with mouse domains 1A, 1B and 2A (aa 30-81) (human; mouse, UniProt P47741 26-77)
T5 construct: domain: 1A, 1B and 2A; On transiently transfected FreeStyle 293-F cells
T5 sequence: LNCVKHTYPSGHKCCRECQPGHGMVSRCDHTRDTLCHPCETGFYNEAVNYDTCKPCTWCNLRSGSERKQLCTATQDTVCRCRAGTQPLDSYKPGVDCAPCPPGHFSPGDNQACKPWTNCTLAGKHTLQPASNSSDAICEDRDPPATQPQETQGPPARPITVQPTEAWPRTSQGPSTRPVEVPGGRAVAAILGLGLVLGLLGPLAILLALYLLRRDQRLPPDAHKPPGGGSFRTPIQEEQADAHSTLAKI

T6: chimeric OX40 construct 1548: Human OX40 with mouse module 3 and domains 4A and 4B (aa 108-167) (human; mouse, UniProt P47741 104-165)
T6 construct: domain: module 3 and domains 4A and 4B; On 293-F cells; limits derived as for 1544
T6 sequence: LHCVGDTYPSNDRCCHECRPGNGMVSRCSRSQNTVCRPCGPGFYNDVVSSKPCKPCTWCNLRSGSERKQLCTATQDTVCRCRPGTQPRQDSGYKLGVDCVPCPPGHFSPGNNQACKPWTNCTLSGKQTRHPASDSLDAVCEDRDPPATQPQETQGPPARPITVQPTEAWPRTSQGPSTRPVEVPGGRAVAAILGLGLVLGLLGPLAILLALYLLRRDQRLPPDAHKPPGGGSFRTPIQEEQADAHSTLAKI


Experiments:
CTLA-4 (BMS, Orencia) = CTLA-4 (BMS, Orencia) (human, UniProt P16410 38-152); assay: cell-based or functional assay
Chain of CTLA-4 (BMS, Orencia) (P16410 38-152 limits assumed): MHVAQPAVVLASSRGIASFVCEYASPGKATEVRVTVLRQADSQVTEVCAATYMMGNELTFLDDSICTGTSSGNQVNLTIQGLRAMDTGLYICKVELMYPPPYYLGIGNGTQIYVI

[1] = target: T1, construct 84: Construct containing the …; assay: flow cytometry on human/mouse OX40 chimeras
Description: (§1) The mouse/human chimeras were transiently transfected into FreeStyle 293-F cells (Invitrogen), incubated 48 hours in FreeStyle 293 expression medium (Invitrogen) 37 C, 8% CO₂, 135 rpm. The transfected cells were incubated with human OX40 antibodies, human OX40L (hOX40L, RnD Systems), mouse OX40L (mOX40L, RnD Systems) and controls for 30 min 4° C. and then detected with a-huIgG-PE (Jackson lmmunoresearch) 30 min 4° C. Cells were analyzed with FACS Verse (BD Biosciences). Binding to the different chimeric constructs were calculated as relative (mean fluorescence intensity) MFI compared to the binding of the isotype control.

[2] = target: T1, construct 84: Construct containing the …; assay: flow cytometry, transfected 293-F cells
Description: as §1

[3] = target: T2, chimeric OX40 construct 1546: Human …; assay: flow cytometry, transfected 293-F cells
Description: as §1

[4] = target: T3, chimeric OX40 construct 1547: Human …; assay: flow cytometry, transfected 293-F cells
Description: as §1

[5] = target: T4, chimeric OX40 construct 1545: Human …; assay: flow cytometry, transfected 293-F cells
Description: as §1

[6] = target: T5, chimeric OX40 construct 1544: Human …; assay: flow cytometry, transfected 293-F cells
Description: as §1

[7] = target: T6, chimeric OX40 construct 1548: Human …; assay: flow cytometry, transfected 293-F cells
Description: as §1

Binder | Mean IL-2 level (pg/ml) induced at 1.5 nM bispecific antibody or control (CTLA-4 (BMS, Orencia)) [pg/mL] | binding result [1] | relative MFI compared to isotype control [2] | relative MFI compared to isotype control [3] | relative MFI compared to isotype control [4] | relative MFI compared to isotype control [5] | relative MFI compared to isotype control [6] | relative MFI compared to isotype control [7]
anti-OX40 antibody 1526/1527 (antibody, V domains shown, Tested as IgG) VH: EVQLLESGGGLVQPGGSLRLSCAASGFTFSGYSMYWVRQAPGKGLEWVSGIGYSGYGTYYADSVKGRFTISRDNSKNTLYLQMNSLRAEDTAVYYCARYYFHDYAAYSLDYWGQGTLVTVSS VL: DIQMTQSPSSLSASVGDRVTITCRASQSISSYLNWYQQKPGKAPKLLIYAASSLQSGVPSRFSGSGSGTDFTLTISSLQPEDFATYYCQQYGSDSLLTFGQGTKLEIK | – | – | 21.4 | 0.9 | 1 | 1.3 | 1.1 | 12.7
anti-OX40 antibody 1482/1483 (antibody, V domains shown, Tested as IgG) VH: EVQLLESGGGLVQPGGSLRLSCAASGFTFSSYAMSWVRQAPGKGLEWVSYISYYSGYTYYADSVKGRFTISRDNSKNTLYLQMNSLRAEDTAVYYCARGYGYLDYWGQGTLVTVSS VL: DIQMTQSPSSLSASVGDRVTITCRASQSISSYLNWYQQKPGKAPKLLIYAASSLQSGVPSRFSGSGSGTDFTLTISSLQPEDFATYYCQQYGSLLTFGQGTKLEIK | – | – | 24.9 | 0.9 | 1 | 44.4 | 8.4 | 1.1
anti-OX40 antibody 1168/1135 (antibody, V domains shown, Tested as IgG) VH: EVQLLESGGGLVQPGGSLRLSCAASGFTFSGSSMSWVRQAPGKGLEWVSSISYYGGYTYYADSVKGRFTISRDNSKNTLYLQMNSLRAEDTAVYYCARYFPHYYFDYWGQGTLVTVSS VL: not shown | – | – | 29.6 | 0.9 | 1 | 46.6 | 13.2 | 1
anti-OX40 antibody 1542/1135 (antibody, V domains shown, Tested as IgG) VH: EVQLLESGGGLVQPGGSLRLSCAASGFTFGSSSMYWVRQAPGKGLEWVSGIGYYSYSTSYADSVKGRFTISRDNSKNTLYLQMNSLRAEDTAVYYCARGYPHHYFDYWGQGTLVTVSS VL: not shown | – | – | 29.4 | 0.9 | 1 | 40.2 | 7.1 | 1.2

The next lines start with the values.

Mean IL-2 level (pg/ml) induced at 1.5 nM bispecific antibody or control (CTLA-4 (BMS, Orencia)) [pg/mL] | binding result [1] | relative MFI compared to isotype control [2] | relative MFI compared to isotype control [3] | relative MFI compared to isotype control [4] | relative MFI compared to isotype control [5] | relative MFI compared to isotype control [6] | relative MFI compared to isotype control [7] | Binder
3200 | – | – | – | – | – | – | – | bispecific molecule 1526/1585 (bispecific antibody, human IgG1, kappa) heavy: not shown light: DIQMTQSPSSLSASVGDRVTITCRASQSISSYLNWYQQKPGKAPKLLIYAASSLQSGVPSRFSGSGSGTDFTLTISSLQPEDFATYYCQQYGSDSLLTFGQGTKLEIKRTVAAPSVFIFPPSDEQLKSGTASVVCLLNNFYPREAKVQWKVDNALQSGNSQESVTEQDSKDSTYSLSSTLTLSKADYEKHKVYACEVTHQGLSSPVTKSFNRGECSGGGGSGGGGSAPLKIQAYFNETADLPCQFANSQNLSLSELVVFWQDQENLVLNEVYLGKERFDSVDSKYMGRTSFDSDSWTLRLHNLQIKDKGRYQCIIHHKKPTGMINIHQMNSELSVLA
– | binds | – | – | – | – | – | – | human OX40L (hOX40L, RnD Systems) (ligand, UniProt P23510 51-183, looked up, also called human OX40 ligand) QVSHRYPRIQSIKVQFTEYKKEKGFILTSQKEDEIMKVQNNSVIINCDGFYLISLKGYFSQEVNISLHYQKDEEPLFQLKKVRSVNSLMVASLTYKDKVYLNVTTDNTSLDDFHVNGGELILIHQNPGEFCVL
